In publication PMC12326988, “Synthetic host defense peptide inhibits SARS-CoV-2 replication in vitro” (Antimicrobial Agents and Chemotherapy, 2025):

Target: binding between SARS-CoV-2 Wuhan RBD-Fc and hACE2-AP (UniProt P0DTC2+Q9BYF1)
Parameters: species or system SARS-CoV-2; human

Sequence of binding between SARS-CoV-2 Wuhan RBD-Fc and hACE2-AP (Q9BYF1 18-740, one chain of several): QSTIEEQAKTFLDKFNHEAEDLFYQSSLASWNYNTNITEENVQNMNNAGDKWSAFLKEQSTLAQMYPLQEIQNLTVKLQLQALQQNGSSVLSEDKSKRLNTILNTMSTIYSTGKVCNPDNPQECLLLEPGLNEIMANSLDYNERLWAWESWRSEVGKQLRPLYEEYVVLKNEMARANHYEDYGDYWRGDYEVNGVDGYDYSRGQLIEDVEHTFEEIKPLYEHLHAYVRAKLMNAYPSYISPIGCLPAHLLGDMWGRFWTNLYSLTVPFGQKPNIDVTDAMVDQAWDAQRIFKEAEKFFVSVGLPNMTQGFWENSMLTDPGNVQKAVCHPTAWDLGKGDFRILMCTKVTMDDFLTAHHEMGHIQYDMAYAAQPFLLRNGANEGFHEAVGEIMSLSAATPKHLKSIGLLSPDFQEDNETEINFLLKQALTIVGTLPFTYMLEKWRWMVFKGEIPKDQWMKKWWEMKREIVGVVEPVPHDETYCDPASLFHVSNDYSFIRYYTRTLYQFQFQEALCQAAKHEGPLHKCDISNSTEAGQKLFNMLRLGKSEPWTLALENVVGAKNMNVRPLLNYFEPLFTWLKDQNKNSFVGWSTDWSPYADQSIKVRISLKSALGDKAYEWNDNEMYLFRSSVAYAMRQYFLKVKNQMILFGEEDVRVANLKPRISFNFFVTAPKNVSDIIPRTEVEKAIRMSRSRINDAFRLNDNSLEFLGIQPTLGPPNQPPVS

Substance: shACE2
- IC50, inhibition of hACE2-AP to RBD-Fc interaction: 1.42 µg/mL
